Data reported in PMC8276268 (Biochemistry, 2012).

Columns and labels:
[1] = biological target: ABCG2^Myc-L3*TM6* (full-length ABCG2 with ECL3—TM6 replaced by ECL1—TM2) (human) (UniProt Q9UNQ0); experiment: cross-linking
[2] = biological target: ABCG2^Myc-TM5*L3* (full-length ABCG2 with TM5—ECL3 replaced by TM1—ECL1) (human) (UniProt Q9UNQ0); experiment: cross-linking
[3] = biological target: ABCG2^Myc-TM6* (ABCG2 with TM6 replaced by TM2) (human) (UniProt Q9UNQ0); experiment: cross-linking
[4] = biological target: ABCG2^Myc-ECL3* (full-length ABCG2 with ECL3 replaced by ECL1) (human) (UniProt Q9UNQ0); experiment: cross-linking
[5] = biological target: ABCG2^Myc-TM5* (ABCG2 with TM5 replaced by TM1) (human) (UniProt Q9UNQ0); experiment: cross-linking
[6] = biological target: T1, HA-tagged full-length ABCG2 (ABCG2^HA-WT) (human, UniProt Q9UNQ0 1-655, R482G); experiment: co-IP
T1 sequence (looked up): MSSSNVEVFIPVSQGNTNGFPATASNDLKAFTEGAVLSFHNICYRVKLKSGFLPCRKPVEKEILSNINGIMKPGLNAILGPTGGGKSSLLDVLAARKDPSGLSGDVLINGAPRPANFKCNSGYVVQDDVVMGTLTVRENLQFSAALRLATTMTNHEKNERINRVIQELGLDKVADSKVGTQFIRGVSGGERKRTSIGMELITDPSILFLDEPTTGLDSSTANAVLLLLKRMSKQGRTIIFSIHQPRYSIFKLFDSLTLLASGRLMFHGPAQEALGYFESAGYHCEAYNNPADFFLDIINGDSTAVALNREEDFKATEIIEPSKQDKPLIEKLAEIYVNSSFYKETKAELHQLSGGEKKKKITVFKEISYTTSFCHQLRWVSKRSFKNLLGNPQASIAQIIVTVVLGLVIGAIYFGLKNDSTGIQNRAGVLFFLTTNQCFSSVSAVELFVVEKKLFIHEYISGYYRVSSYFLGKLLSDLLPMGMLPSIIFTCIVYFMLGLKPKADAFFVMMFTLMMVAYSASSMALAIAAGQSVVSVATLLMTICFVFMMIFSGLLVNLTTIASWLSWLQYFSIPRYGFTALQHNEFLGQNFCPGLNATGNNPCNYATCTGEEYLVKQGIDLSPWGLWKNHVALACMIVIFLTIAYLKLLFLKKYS

ABCG2^Myc-L3*TM6* (full-length ABCG2 with ECL3—TM6 replaced by ECL1—TM2) (from UniProt Q9UNQ0 1-655) (natural protein)
percent of the protein cross-linked as dimer [1]: 11% | percent of the protein cross-linked as hexamer [1]: 89%

ABCG2^Myc-TM5*L3* (full-length ABCG2 with TM5—ECL3 replaced by TM1—ECL1) (from UniProt Q9UNQ0 1-655) (natural protein)
percent of the protein cross-linked as dimer [2]: 29% | percent of the protein cross-linked as pentamer [2]: 51% | percent of the protein cross-linked as trimer [2]: 8%

ABCG2^Myc-TM6* (ABCG2 with TM6 replaced by TM2) (from UniProt Q9UNQ0 1-655) (natural protein)
percent of the protein cross-linked as dimer [3]: 18% | percent of the protein cross-linked as tetramer [3]: 49% | percent of the protein cross-linked as trimer [3]: 29%

ABCG2^Myc-ECL3* (full-length ABCG2 with ECL3 replaced by ECL1) (from UniProt Q9UNQ0 1-655) (natural protein)
percent of the protein cross-linked as dimer [4]: 26% | percent of the protein cross-linked as pentamer [4]: 43% | percent of the protein cross-linked as trimer [4]: 11%

ABCG2^Myc-TM5* (ABCG2 with TM5 replaced by TM1) (from UniProt Q9UNQ0 1-655) (natural protein)
percent of the protein cross-linked as dimer [5]: 31% | percent of the protein cross-linked as tetramer [5]: 10% | percent of the protein cross-linked as trimer [5]: 32%

B1: Myc-tagged wild-type ABCG2 (ABCG2^Myc-WT) (natural protein, human, UniProt Q9UNQ0 1-655, looked up)
chain: T1 sequence (looked up)
Co-IP with WT, relative to the wild-type construct [6]: 100%
